According to patent US20180118799A1 (NATIONAL INSTITUTE OF ADVANCED INDUSTRIAL SCIENCE AND …, published 2018):

Columns and labels:
[1] = biological target: T1, Fc-fusion G-CSF receptor; experiment: SPR, Biacore T200, Fc-fusion G-CSF receptor captured on immobilized Protein A, single kinetic mode, 25 C (Example 19)
T1 construct: also called granulocyte colony-stimulating factor receptor
T1 sequence (Q99062 whole entry, species assumed, looked up): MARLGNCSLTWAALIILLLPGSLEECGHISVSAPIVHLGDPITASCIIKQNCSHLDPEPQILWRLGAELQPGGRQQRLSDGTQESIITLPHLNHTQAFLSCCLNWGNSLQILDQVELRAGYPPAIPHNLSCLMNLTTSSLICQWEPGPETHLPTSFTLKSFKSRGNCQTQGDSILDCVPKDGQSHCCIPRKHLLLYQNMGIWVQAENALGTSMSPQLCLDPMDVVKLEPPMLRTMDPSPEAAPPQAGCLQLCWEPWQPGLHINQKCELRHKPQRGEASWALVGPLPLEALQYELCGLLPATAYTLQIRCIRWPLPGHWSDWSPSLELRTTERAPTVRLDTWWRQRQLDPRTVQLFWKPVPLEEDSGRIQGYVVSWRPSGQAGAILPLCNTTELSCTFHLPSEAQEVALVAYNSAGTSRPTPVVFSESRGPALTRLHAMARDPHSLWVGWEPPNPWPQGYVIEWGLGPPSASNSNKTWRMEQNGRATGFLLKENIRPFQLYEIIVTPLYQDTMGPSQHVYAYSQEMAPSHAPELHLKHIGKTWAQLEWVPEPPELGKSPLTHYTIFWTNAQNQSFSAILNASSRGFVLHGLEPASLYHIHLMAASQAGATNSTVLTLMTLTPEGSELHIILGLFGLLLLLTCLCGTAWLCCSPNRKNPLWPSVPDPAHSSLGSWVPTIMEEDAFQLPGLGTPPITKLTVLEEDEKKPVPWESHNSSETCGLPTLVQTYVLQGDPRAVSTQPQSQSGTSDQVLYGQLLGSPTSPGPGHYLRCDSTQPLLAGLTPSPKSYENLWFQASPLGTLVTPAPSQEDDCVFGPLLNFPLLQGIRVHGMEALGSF
Experimental: (§1) First, commercially available Protein A (Nacalai Tesque, Inc.) was immobilized on a flow cell of a sensor chip CM5 (GE Health care) by using an amine coupling reaction. Next, a running buffer HBS-P (10 mM HEPES pH 7.4, 150 mM NaCl, and 0.05% v/v Surfactant P20) in which an Fc-fusion G-CSF receptor had been dissolved was added to immobilize the receptor on the chip. The SPR measurement was carried out using Biacore T200 (Biacore) and the reaction temperature was 25° C. A 2-fold dilution series from 1.25 nM to 20 nM of the sample solution was prepared, and a single kinetic mode was used for measurement and analysis. When compared with Example 8, this Example had improvements such as use of Biacore T200, which has higher sensitivity than Biacore T100, and use of commercially available Protein A. The improvements helped increase the sensitivity and reproducibility of measurement. Then, the linear G-CSF, G-CSF(C177), and G-CSF(C163) as measured in Example 8 were remeasured and the resulting analysis values were used for comparison.
(§2) The observation results were analyzed using BIAevaluation version 4.1 to calculate a dissociation constant.

[2] = biological target: T1, Fc-fusion G-CSF receptor; experiment: SPR, Biacore T200, Fc-fusion G-CSF receptor captured on immobilized Protein A, single kinetic mode, 25 C (Example 19, remeasured)
Experimental: as §1

[3] = biological target: T1, Fc-fusion G-CSF receptor; experiment: SPR, Biacore T100, Fc-fusion G-CSF receptor captured on immobilized Protein G, single kinetic mode, 25 C (Example 8)
Experimental: First, Protein G was immobilized on a flow cell of a sensor chip CMS (GE Health care) by using a maleimide coupling reaction. Next, a running buffer HBS-P (10 mM HEPES pH 7.4, 150 mM NaCl, and 0.05% v/v Surfactant P20) in which an Fc-fusion G-CSF receptor had been dissolved was added to immobilize the receptor on the chip. The SPR measurement was carried out using Biacore T100 (Biacore) and the reaction temperature was 25° C. A 2-fold dilution series from 1.25 nM to 20 nM of the sample solution was prepared, and a single kinetic mode was used for measurement and analysis.
as §2

B1: G-CSF(C170) (ligand)
chain: SGPASSLPQSFLLKSLEQVRKIQGDGAALQEKLCATYKLCHPEELVLLGHSLGIPWAPLSSCPSQALQLAGCLSQLHSGLFLYQGLLQALEGISPELGPTLDTLQLDVADFATTIWQQMEELGMAPALQPTQGAMPAFASAFQRRAGGVLVASHLQSFLEVSYRVLRHLG
modifications: backbone cyclized: amino group of serine at the N-terminus and carbonyl group of glycine at the C-terminus linked by a peptide bond
notes: 170 amino acids; also called cyclized G-CSF(C170)
[1]
  Kd: 50 pM

B2: G-CSF(C163) (ligand)
chain: SQSFLLKSLEQVRKIQGDGAALQEKLCATYKLCHPEELVLLGHSLGIPWAPLSSCPSQALQLAGCLSQLHSGLFLYQGLLQALEGISPELGPTLDTLQLDVADFATTIWQQMEELGMAPALQPTQGAMPAFASAFQRRAGGVLVASHLQSFLEVSYRVLRHLG
modifications: backbone cyclized: amino group of serine at the N-terminus and carbonyl group of glycine at the C-terminus linked by a peptide bond
notes: also called cyclized G-CSF(C163)
[2]
  Kd: 100 pM
[3]
  Kd: 570 pM

B3: G-CSF(C166) (ligand)
chain: SSLPQSFLLKSLEQVRKIQGDGAALQEKLCATYKLCHPEELVLLGHSLGIPWAPLSSCPSQALQLAGCLSQLHSGLFLYQGLLQALEGISPELGPTLDTLQLDVADFATTIWQQMEELGMAPALQPTQGAMPAFASAFQRRAGGVLVASHLQSFLEVSYRVLRHLG
modifications: backbone cyclized: amino group of serine at the N-terminus and carbonyl group of glycine at the C-terminus linked by a peptide bond
notes: also called cyclized G-CSF(C166)
[1]
  Kd: 60 pM

B4: G-CSF(C177) (ligand)
chain: SMAPLGPASSLPQSFLLKSLEQVRKIQGDGAALQEKLCATYKLCHPEELVLLGHSLGIPWAPLSSCPSQALQLAGCLSQLHSGLFLYQGLLQALEGISPELGPTLDTLQLDVADFATTIWQQMEELGMAPALQPTQGAMPAFASAFQRRAGGVLVASHLQSFLEVSYRVLRHLAQPG
modifications: backbone cyclized: amino group of serine at the N-terminus and carbonyl group of glycine at the C-terminus linked by a peptide bond
notes: Cyclized with split inteins; also called cyclized G-CSF(C177)
[2]
  Kd: 60 pM
[3]
  Kd: 570 pM

B5: linear control G-CSF (ligand)
chain: MAPLGPASSLPQSFLLKSLEQVRKIQGDGAALQEKLCATYKLCHPEELVLLGHSLGIPWAPLSSCPSQALQLAGCLSQLHSGLFLYQGLLQALEGISPELGPTLDTLQLDVADFATTIWQQMEELGMAPALQPTQGAMPAFASAFQRRAGGVLVASHLQSFLEVSYRVLRHLAQP
notes: Linear polypeptide of 175 amino acids; also called linear G-CSF
[2]
  Kd: 80 pM
[3]
  Kd: 430 pM

B6: filgrastim (ligand)
chain: MTPLGPASSLPQSFLLKCLEQVRKIQGDGAALQEKLCATYKLCHPEELVLLGHSLGIPWAPLSSCPSQALQLAGCLSQLHSGLFLYQGLLQALEGISPELGPTLDTLQLDVADFATTIWQQMEELGMAPALQPTQGAMPAFASAFQRRAGGVLVASHLQSFLEVSYRVLRHLAQP
notes: Its source in the assay is not described
[1]
  Kd: 270 pM
